Test results published in article PMC12440826, “Shigella flexneri evades LPS ubiquitylation through IpaH1.4-mediated degradation of RNF213” (Nature Structural & Molecular Biology, 2025).

Target: T1, 2×Strep–RNF213 (WT human RNF213) (human, UniProt Q63HN8 1-5207)
T1 construct: RNF213, human E3 ubiquitin ligase; plasmid pOP806_pACEBac1 2×Strep–RNF213; the N terminus (residues 1–398) is not resolved in the maps; source: Sf9, purified (StrepTrap HP)
Experiment: cryo-EM structure; RNF213 (around 2 μM) mixed with a fivefold molar excess of IpaH1.4/2.5 (10 μM), incubated on ice for 30 min, vitrified on all-gold grids
Details: both partners purified

T1 sequence (Q63HN8 whole entry, the tested form may be a part): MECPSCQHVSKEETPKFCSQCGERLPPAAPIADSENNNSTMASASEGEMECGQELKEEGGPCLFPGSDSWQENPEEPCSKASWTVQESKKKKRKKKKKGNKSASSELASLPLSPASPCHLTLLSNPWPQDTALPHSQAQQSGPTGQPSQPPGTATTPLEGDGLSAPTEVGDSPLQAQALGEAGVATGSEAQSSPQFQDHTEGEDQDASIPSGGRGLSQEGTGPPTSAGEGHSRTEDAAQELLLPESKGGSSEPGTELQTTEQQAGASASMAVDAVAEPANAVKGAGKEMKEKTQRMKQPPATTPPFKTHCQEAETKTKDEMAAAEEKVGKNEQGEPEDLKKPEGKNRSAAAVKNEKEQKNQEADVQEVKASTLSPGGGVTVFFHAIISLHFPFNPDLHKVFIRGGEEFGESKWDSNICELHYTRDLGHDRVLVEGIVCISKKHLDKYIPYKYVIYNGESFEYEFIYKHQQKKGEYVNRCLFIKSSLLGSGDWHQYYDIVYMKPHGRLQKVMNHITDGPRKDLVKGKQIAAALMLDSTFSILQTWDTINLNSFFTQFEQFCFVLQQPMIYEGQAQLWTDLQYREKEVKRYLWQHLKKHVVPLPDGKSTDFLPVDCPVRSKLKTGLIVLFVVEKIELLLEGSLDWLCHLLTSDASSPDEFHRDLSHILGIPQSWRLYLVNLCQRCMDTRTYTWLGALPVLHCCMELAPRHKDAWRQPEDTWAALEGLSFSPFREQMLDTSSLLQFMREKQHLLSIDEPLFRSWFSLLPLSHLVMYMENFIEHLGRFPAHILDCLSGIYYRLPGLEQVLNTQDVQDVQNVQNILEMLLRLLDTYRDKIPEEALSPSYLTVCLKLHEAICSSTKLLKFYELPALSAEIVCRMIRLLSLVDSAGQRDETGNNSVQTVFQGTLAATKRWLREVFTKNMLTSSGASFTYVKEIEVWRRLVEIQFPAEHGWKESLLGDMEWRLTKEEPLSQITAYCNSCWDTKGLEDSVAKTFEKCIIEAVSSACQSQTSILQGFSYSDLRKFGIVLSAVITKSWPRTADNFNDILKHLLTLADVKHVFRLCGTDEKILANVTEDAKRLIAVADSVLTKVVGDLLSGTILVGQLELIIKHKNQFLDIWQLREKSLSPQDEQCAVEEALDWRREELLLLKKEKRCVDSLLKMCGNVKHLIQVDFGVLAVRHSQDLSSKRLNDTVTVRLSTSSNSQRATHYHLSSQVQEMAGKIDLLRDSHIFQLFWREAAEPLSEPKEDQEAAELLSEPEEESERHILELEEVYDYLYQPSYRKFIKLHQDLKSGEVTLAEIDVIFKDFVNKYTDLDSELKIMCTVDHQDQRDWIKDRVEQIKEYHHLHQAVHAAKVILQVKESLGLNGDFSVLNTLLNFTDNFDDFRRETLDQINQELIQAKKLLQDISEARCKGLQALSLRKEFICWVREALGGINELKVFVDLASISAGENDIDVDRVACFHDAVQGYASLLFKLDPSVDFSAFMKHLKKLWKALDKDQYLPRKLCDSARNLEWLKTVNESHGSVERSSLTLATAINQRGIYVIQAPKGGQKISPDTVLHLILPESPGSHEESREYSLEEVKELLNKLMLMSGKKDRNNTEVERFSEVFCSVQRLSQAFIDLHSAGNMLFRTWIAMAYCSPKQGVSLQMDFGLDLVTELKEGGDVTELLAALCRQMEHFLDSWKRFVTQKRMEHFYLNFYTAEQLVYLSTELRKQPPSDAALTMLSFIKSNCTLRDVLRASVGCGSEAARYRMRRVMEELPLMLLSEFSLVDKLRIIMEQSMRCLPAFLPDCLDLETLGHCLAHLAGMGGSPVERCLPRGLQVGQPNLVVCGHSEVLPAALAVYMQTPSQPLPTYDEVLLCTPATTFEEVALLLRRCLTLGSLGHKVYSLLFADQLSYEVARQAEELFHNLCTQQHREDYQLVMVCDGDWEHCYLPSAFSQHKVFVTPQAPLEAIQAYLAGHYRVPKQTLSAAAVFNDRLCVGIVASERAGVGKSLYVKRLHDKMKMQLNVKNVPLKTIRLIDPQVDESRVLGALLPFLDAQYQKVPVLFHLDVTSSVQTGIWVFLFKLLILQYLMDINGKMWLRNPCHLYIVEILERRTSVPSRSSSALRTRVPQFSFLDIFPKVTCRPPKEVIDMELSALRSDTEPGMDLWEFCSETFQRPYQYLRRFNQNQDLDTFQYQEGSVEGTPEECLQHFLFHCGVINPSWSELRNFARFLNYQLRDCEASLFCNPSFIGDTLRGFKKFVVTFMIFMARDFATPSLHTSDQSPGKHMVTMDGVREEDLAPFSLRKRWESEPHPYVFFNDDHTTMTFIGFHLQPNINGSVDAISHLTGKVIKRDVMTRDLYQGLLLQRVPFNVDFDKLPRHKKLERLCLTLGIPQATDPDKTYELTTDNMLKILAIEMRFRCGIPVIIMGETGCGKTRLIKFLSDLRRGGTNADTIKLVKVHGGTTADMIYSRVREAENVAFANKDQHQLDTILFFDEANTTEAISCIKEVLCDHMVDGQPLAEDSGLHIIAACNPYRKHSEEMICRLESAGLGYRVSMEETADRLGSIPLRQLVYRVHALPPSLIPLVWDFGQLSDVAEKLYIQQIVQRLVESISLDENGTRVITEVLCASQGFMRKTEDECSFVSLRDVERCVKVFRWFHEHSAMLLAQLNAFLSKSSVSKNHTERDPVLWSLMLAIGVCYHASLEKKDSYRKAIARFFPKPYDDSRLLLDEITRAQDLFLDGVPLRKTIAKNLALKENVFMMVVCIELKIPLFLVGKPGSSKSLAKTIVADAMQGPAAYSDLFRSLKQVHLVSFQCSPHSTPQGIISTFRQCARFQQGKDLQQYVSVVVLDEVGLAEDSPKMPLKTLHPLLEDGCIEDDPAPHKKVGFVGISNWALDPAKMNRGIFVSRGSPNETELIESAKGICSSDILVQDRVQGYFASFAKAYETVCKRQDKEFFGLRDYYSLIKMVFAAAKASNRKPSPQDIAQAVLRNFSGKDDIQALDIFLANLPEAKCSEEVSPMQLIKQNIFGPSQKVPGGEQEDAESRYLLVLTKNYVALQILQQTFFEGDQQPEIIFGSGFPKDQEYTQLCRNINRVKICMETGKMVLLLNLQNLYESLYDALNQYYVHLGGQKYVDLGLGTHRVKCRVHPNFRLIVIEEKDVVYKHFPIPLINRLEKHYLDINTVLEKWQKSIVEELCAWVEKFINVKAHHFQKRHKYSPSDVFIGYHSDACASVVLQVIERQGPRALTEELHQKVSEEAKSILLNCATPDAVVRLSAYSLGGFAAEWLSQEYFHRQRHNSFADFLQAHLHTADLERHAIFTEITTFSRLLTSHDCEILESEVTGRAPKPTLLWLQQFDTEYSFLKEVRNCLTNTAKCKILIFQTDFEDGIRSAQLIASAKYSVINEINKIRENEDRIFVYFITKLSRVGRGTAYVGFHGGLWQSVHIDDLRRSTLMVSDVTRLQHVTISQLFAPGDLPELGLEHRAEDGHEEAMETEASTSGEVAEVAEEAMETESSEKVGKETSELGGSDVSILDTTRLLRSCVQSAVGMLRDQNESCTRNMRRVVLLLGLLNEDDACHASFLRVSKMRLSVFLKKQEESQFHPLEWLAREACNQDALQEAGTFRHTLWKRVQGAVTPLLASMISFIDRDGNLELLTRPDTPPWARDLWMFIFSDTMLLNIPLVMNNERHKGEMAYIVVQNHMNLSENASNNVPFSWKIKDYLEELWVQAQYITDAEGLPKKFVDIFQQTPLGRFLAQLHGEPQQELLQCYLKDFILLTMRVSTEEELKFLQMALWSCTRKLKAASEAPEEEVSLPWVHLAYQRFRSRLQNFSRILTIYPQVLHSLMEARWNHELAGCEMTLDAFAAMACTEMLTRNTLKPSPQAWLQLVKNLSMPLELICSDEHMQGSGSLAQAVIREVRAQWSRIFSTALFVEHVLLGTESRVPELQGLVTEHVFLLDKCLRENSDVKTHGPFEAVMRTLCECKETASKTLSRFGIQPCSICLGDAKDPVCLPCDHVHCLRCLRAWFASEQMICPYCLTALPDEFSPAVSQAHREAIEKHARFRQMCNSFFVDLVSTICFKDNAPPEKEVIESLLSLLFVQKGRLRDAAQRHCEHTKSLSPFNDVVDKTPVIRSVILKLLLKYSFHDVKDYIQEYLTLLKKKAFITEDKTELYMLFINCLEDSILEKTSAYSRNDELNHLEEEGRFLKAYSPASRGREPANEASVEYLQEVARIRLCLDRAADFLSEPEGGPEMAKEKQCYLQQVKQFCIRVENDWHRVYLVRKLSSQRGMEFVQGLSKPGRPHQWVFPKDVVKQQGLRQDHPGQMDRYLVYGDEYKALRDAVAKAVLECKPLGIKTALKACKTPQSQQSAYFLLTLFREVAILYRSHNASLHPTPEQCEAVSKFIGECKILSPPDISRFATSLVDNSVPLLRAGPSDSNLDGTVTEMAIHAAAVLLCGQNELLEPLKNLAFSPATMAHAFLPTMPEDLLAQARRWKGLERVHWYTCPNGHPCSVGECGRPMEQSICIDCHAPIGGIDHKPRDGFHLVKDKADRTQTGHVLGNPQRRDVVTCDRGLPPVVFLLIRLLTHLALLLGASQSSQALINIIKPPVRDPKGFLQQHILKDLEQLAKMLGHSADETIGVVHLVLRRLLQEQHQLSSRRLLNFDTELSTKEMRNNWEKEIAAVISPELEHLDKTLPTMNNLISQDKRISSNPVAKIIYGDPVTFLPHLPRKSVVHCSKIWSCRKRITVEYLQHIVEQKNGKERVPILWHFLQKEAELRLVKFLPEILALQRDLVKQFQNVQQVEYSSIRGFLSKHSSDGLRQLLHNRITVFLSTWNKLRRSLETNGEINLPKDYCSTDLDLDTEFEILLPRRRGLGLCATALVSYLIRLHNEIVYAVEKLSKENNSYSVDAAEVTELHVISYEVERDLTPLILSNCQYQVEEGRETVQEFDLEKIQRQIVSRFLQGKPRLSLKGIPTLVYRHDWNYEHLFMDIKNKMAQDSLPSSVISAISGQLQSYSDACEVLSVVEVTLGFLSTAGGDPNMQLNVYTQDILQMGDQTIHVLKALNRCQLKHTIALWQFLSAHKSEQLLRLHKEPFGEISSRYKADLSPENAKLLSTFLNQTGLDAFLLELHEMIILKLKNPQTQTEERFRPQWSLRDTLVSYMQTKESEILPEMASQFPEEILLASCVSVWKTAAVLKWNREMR

B1: IpaH1.4 (untagged, recombinant) (enzyme)
chain: MIKSTNIQAIGSGIMHQINNVYSLTPLSLPMELTPSCNEFYLKTWSEWEKNGTPGEQRNIAFNRLKICLQNQEAELNLSELDLKTLPDLPPQITTLEIRKNLLTHLPDLPPMLKVIHAQFNQLESLPALPETLEELNAGDNKIKELPFLPENLTHLRVHNNRLHILPLLPPELKLLVVSGNRLDSIPPFPDKLEGLALANNFIEQLPELPFSMNRAVLMNNNLTTLPESVLRLAQNAFVNVAGNPLSGHTMRTLQQITTGPDYSGPQIFFSMGNSATISAPEHSLADAVTAWFPENKQSDVSQIWHAFEHEEHANTFSAFLDRLSDTVSARNTSGFREQVAAWLEKLSASAELRQQSFAVAADATESCEDRVALTWNNLRKTLLVHQASEGLFDNDTGALLSLGREMFRLEILEDIARDKVRTLHFVDEIEVYLAFQTMLAEKLQLSTAVKEMRFYGVSGVTANDLRTAEAMVRSREENEFTDWFSLWGPWHAVLKRTEADRWAQAEEQKYEMLENEYSQRVADRLKASGLSGDADAEREAGAQVMRETEQQIYRQLTDEVLALRLSENGSNHIA
notes: IpaH1.4, secreted E3 ubiquitin ligase effector of Shigella flexneri; open reading frame cloned into pETM-30; only the LRR domain is resolved in the map; also called WT IpaH1.4; not shown: 6xHis, N-terminal, cleaved; GST, N-terminal, cleaved
- binding result: binds
